From US20040096942A1

Experiments:
[1] = target: GAL4CfEcR-DEF (yeast; spruce budworm Choristoneura fumiferana); assay: cell-based or functional assay
[2] = target: GAL4DmEcR-DEF (yeast; fruit fly Drosophila melanogaster); assay: cell-based or functional assay

VP16MmRXRα(1-7)-LmUSP(8-12)-EF
maximum fold induction of luciferase reporter, two-hybrid gene switch in NIH3T3 cells (fold induction) [1]: 11000 | maximum fold induction of luciferase reporter, two-hybrid gene switch in NIH3T3 cells (fold induction) [2]: 1760
